System: proteins that co-immunoprecipitated with DUX4-CTD constructs expressed in MB135 myoblasts
Experiment: LC-MS of proteins co-immunoprecipitated with DUX4-CTD (Table 1) and western validation
Assay type: binding, human
Parameters: key to 4. mL1dL2 + Dox + IFNG / 4. + IFNG mix / 4. longCTD + Dox + IFNG / 3. + IFNg + Dox longCTD / 3. + Dox longCTD / 3. + IFNG longCTD: peptide-spectrum matches (PSMs) per protein
Conditions: for 4. longCTD + Dox + IFNG: LC-MS counts of the listed protein co-immunoprecipitated with DUX4-CTD bait longCTD, experiment 4, Dox + IFNG; for 3. + Dox longCTD / 3. + IFNg + Dox longCTD: bait longCTD; for 3. + Dox longCTD: experiment 3, Dox only; for 3. + IFNg + Dox longCTD: experiment 3, IFNg + Dox; for SUM of PSMS: sum over all samples
How it was run: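 FLAG-tagged DUX4-CTD expressed in doxycycline-induced MB135 myoblasts, some also IFNG-treated; nuclear lysates in pH 7.4 NP-40 IP buffer were pre-cleared, then anti-FLAG immunoprecipitated 3 h at 4 °C. For LC-MS, FLAG-peptide elution, in-gel trypsin digest, Orbitrap analysis; proteins with ≥2 PSMs in both experiments categorised and ranked by total PSMs.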

B1: P68104 (protein, UniProt P68104 1-462, looked up)
chain: MGKEKTHINIVVIGHVDSGKSTTTGHLIYKCGGIDKRTIEKFEKEAAEMGKGSFKYAWVLDKLKAERERGITIDISLWKFETSKYYVTIIDAPGHRDFIKNMITGTSQADCAVLIVAAGVGEFEAGISKNGQTREHALLAYTLGVKQLIVGVNKMDSTEPPYSQKRYEEIVKEVSTYIKKIGYNPDTVAFVPISGWNGDNMLEPSANMPWFKGWKVTRKDGNASGTTLLEALDCILPPTRPTDKPLRLPLQDVYKIGGIGTVPVGRVETGVLKPGMVVTFAPVNVTTEVKSVEMHHEALSEALPGDNVGFNVKNVSVKDVRRGNVAGDSKNDPPMEAAGFTAQVIILNHPGQISAGYAPVLDCHTAHIACKFAELKEKIDRRSGKKLEDGPKFLKSGDAAIVDMVPGKPMCVESFSDYPPLGRFAVRDMRQTVAVGVIKAVDKKAAGAGKVTKSAQKAQKAK
modifications: full-length
B1 was tested, and the “4. longCTD + Dox + IFNG” value was 9, the “3. + Dox longCTD” value was 9 and the “3. + IFNg + Dox longCTD” value was 21. For the same molecule, the “SUM of PSMS” value was 46.

B2: SF3B3 (protein)
chain: MFLYNLTLQRATGISFAIHGNFSGTKQQEIVVSRGKILELLRPDPNTGKVHTLLTVEVFGVIRSLMAFRLTGGTKDYIVVGSDSGRIVILEYQPSKNMFEKIHQETFGKSGCRRIVPGQFLAVDPKGRAVMISAIEKQKLVYILNRDAAARLTISSPLEAHKANTLVYHVVGVDVGFENPMFACLEMDYEEADNDPTGEAAANTQQTLTFYELDLGLNHVVRKYSEPLEEHGNFLITVPGGSDGPSGVLICSENYITYKNFGDQPDIRCPIPRRRNDLDDPERGMIFVCSATHKTKSMFFFLAQTEQGDIFKITLETDEDMVTEIRLKYFDTVPVAAAMCVLKTGFLFVASEFGNHYLYQIAHLGDDDEEPEFSSAMPLEEGDTFFFQPRPLKNLVLVDELDSLSPILFCQIADLANEDTPQLYVACGRGPRSSLRVLRHGLEVSEMAVSELPGNPNAVWTVRRHIEDEFDAYIIVSFVNATLVLSIGETVEEVTDSGFLGTTPTLSCSLLGDDALVQVYPDGIRHIRADKRVNEWKTPGKKTIVKCAVNQRQVVIALTGGELVYFEMDPSGQLNEYTERKEMSADVVCMSLANVPPGEQRSRFLAVGLVDNTVRIISLDPSDCLQPLSMQALPAQPESLCIVEMGGTEKQDELGERGSIGFLYLNIGLQNGVLLRTVLDPVTGDLSDTRTRYLGSRPVKLFRVRMQGQEAVLAMSSRSWLSYSYQSRFHLTPLSYETLEFASGFASEQCPEGIVAISTNTLRILALEKLGAVFNQVAFPLQYTPRKFVIHPESNNLIIIETDHNAYTEATKAQRKQQMAEEMVEAAGEDERELAAEMAAAFLNENLPESIFGAPKAGNGQWASVIRVMNPIQGNTLDLVQLEQNEAAFSVAVCRFSNTGEDWYVLVGVAKDLILNPRSVAGGFVYTYKLVNNGEKLEFLHKTPVEEVPAAIAPFQGRVLIGVGKLLRVYDLGKKKLLRKCENKHIANYISGIQTIGHRVIVSDVQESFIWVRYKRNENQLIIFADDTYPRWVTTASLLDYDTVAGADKFGNICVVRLPPNTNDEVDEDPTGNKALWDRGLLNGASQKAEVIMNYHVGETVLSLQKTTLIPGGSESLVYTTLSGGIGILVPFTSHEDHDFFQHVEMHLRSEHPPLCGRDHLSFRSYYFPVKNVIDGDLCEQFNSMEPNKQKNVSEELDRTPPEVSKKLEDIRTRYAF
In the case of B2, the “4. mL1dL2 + Dox + IFNG” value (LC-MS value per protein co-immunoprecipitated with DUX4-CTD construct mL1dL2 in MB135 myoblasts, + Dox + IFNG, kind of count not given) is reported as 10.

B3: Q3SY84 (protein, UniProt Q3SY84 1-523, looked up)
chain: MSRQFTCKSGAAAKGGFSGCSAVLSGGSSSSFRAGSKGLSGGFGSRSLYSLGGVRSLNVASGSGKSGGYGFGRGRASGFAGSMFGSVALGPVCPTVCPPGGIHQVTVNESLLAPLNVELDPEIQKVRAQEREQIKALNNKFASFIDKVRFLEQQNQVLETKWELLQQLDLNNCKNNLEPILEGYISNLRKQLETLSGDRVRLDSELRNVRDVVEDYKKRYEEEINKRTAAENEFVLLKKDVDAAYANKVELQAKVESMDQEIKFFRCLFEAEITQIQSHISDMSVILSMDNNRNLDLDSIIDEVRTQYEEIALKSKAEAEALYQTKFQELQLAAGRHGDDLKNTKNEISELTRLIQRIRSEIENVKKQASNLETAIADAEQRGDNALKDARAKLDELEGALHQAKEELARMLREYQELMSLKLALDMEIATYRKLLESEECRMSGEFPSPVSISIISSTSGGSVYGFRPSMVSGGYVANSSNCISGVCSVRGGEGRSRGSANDYKDTLGKGSSLSAPSKKTSR
modifications: full-length
B3 was tested, and the “3. + IFNg + Dox longCTD” value was 9 and the “SUM of PSMS” value was 30.

B4: Q9P2E9 (protein, UniProt Q9P2E9 1-1410, looked up)
chain: MDIYDTQTLGVVVFGGFMVVSAIGIFLVSTFSMKETSYEEALANQRKEMAKTHHQKVEKKKKEKTVEKKGKTKKKEEKPNGKIPDHDPAPNVTVLLREPVRAPAVAVAPTPVQPPIIVAPVATVPAMPQEKLASSPKDKKKKEKKVAKVEPAVSSVVNSIQVLTSKAAILETAPKEVPMVVVPPVGAKGNTPATGTTQGKKAEGTQNQSKKAEGAPNQGRKAEGTPNQGKKTEGTPNQGKKAEGTPNQGKKAEGTPNQGKKAEGAQNQGKKVDTTPNQGKKVEGAPTQGRKAEGAQNQAKKVEGAQNQGKKAEGAQNQGKKGEGAQNQGKKAEGAQNQGKKAEGAQNQGKKAEGAQNQGKKAEGAQNQGKKAEGAQNQGKKAEGAQNQGKKVEGAQNQGKKAEGAQNQGKKAEGAQNQGKKAEGAQNQGKKAEGAQNQGKKAEGAQNQGKKAEGAQNQGKKAEGAQNQGKKVEGAQNQGKKAEGAQNQGKKAEGAQNQGKKAEGAQNQGQKGEGAQNQGKKTEGAQGKKAERSPNQGKKGEGAPIQGKKADSVANQGTKVEGITNQGKKAEGSPSEGKKAEGSPNQGKKADAAANQGKKTESASVQGRNTDVAQSPEAPKQEAPAKKKSGSKKKGEPGPPDADGPLYLPYKTLVSTVGSMVFNEGEAQRLIEILSEKAGIIQDTWHKATQKGDPVAILKRQLEEKEKLLATEQEDAAVAKSKLRELNKEMAAEKAKAAAGEAKVKKQLVAREQEITAVQARMQASYREHVKEVQQLQGKIRTLQEQLENGPNTQLARLQQENSILRDALNQATSQVESKQNAELAKLRQELSKVSKELVEKSEAVRQDEQQRKALEAKAAAFEKQVLQLQASHRESEEALQKRLDEVSRELCHTQSSHASLRADAEKAQEQQQQMAELHSKLQSSEAEVRSKCEELSGLHGQLQEARAENSQLTERIRSIEALLEAGQARDAQDVQASQAEADQQQTRLKELESQVSGLEKEAIELREAVEQQKVKNNDLREKNWKAMEALATAEQACKEKLLSLTQAKEESEKQLCLIEAQTMEALLALLPELSVLAQQNYTEWLQDLKEKGPTLLKHPPAPAEPSSDLASKLREAEETQSTLQAECDQYRSILAETEGMLRDLQKSVEEEEQVWRAKVGAAEEELQKSRVTVKHLEEIVEKLKGELESSDQVREHTSHLEAELEKHMAAASAECQNYAKEVAGLRQLLLESQSQLDAAKSEAQKQSDELALVRQQLSEMKSHVEDGDIAGAPASSPEAPPAEQDPVQLKTQLEWTEAILEDEQTQRQKLTAEFEEAQTSACRLQEELEKLRTAGPLESSETEEASQLKERLEKEKKLTSDLGRAATRLQELLKTTQEQLAREKDTVKKLQEQLEKAEDGSSSKEGTSV
modifications: full-length
With B4 the “4. longCTD + Dox + IFNG” value was 4, the “3. + Dox longCTD” value was 24 and the “3. + IFNg + Dox longCTD” value was 68. For the same molecule, the “SUM of PSMS” value was 112.

B5: Q14240 (protein, UniProt Q14240 1-407, looked up)
chain: MSGGSADYNREHGGPEGMDPDGVIESNWNEIVDNFDDMNLKESLLRGIYAYGFEKPSAIQQRAIIPCIKGYDVIAQAQSGTGKTATFAISILQQLEIEFKETQALVLAPTRELAQQIQKVILALGDYMGATCHACIGGTNVRNEMQKLQAEAPHIVVGTPGRVFDMLNRRYLSPKWIKMFVLDEADEMLSRGFKDQIYEIFQKLNTSIQVVLLSATMPTDVLEVTKKFMRDPIRILVKKEELTLEGIKQFYINVEREEWKLDTLCDLYETLTITQAVIFLNTRRKVDWLTEKMHARDFTVSALHGDMDQKERDVIMREFRSGSSRVLITTDLLARGIDVQQVSLVINYDLPTNRENYIHRIGRGGRFGRKGVAINFVTEEDKRILRDIETFYNTTVEEMPMNVADLI
modifications: full-length
For B5, the “4. longCTD + Dox + IFNG” value was 6, the “3. + Dox longCTD” value was 1 and the “SUM of PSMS” value was 7.

B6: P68366 (protein, UniProt P68366 1-448, looked up)
chain: MRECISVHVGQAGVQMGNACWELYCLEHGIQPDGQMPSDKTIGGGDDSFTTFFCETGAGKHVPRAVFVDLEPTVIDEIRNGPYRQLFHPEQLITGKEDAANNYARGHYTIGKEIIDPVLDRIRKLSDQCTGLQGFLVFHSFGGGTGSGFTSLLMERLSVDYGKKSKLEFSIYPAPQVSTAVVEPYNSILTTHTTLEHSDCAFMVDNEAIYDICRRNLDIERPTYTNLNRLISQIVSSITASLRFDGALNVDLTEFQTNLVPYPRIHFPLATYAPVISAEKAYHEQLSVAEITNACFEPANQMVKCDPRHGKYMACCLLYRGDVVPKDVNAAIAAIKTKRSIQFVDWCPTGFKVGINYQPPTVVPGGDLAKVQRAVCMLSNTTAIAEAWARLDHKFDLMYAKRAFVHWYVGEGMEEGEFSEAREDMAALEKDYEEVGIDSYEDEDEGEE
modifications: full-length
For B6, the “4. longCTD + Dox + IFNG” value was 16, the “3. + Dox longCTD” value was 14 and the “3. + IFNg + Dox longCTD” value was 39. The “SUM of PSMS” value was 69.

Source: patent US20250339531A1, “DUX4 POLYPEPTIDES AND NUCLEIC ACIDS FOR TREATING INFLAMMATORY AND AUTOIMMUNE CONDITIONS” (Fred Hutchinson Cancer Center, priority 2021, published 2025)
